In patent publication US6465220B1, “Glycosylation using GalNac-T4 transferase” (GlycoZym ApS, priority 1998, dated 2002) one finds Km and Vmax data, which are given here for 2 substances.

For data set [1], the system named is T1, C[C@H](NC(=O)[C@H](C)NC(=O)[C@@H](NC(=O)[C@@H](NC(=O)[C@H](CCC(=O)O)NC(=O)[C@@H]1CCCN1C(=O)[C@@H]1CCCN1C(=O)[C@H](C)NC(=O)[C@H](CO)NC(=O)[C@H](CO)NC(=O)[C@H](CO)NC(=O)[C@@H]1CCCN1C(=O)[C@@H]1CCCN1C(=O)[C@H](C)NC(=O)[C@@H]1CCCN1C(=O)[C@@H](NC(=O)[C@@H](NC(=O)[C@H](C)NC(=O)[C@H](CO)NC(=O)[C@@H]1CCCN1C(=O)[C@@H](NC(=O)[C@@H]1CCCN1C(=O)[C@@H]1CCCN1C(=O)[C@@H](N)CS)[C@@H](C)O)[C@@H](C)O)[C@@H](C)O)[C@@H](C)O)[C@@H](C)O)C(=O)O.
T1 construct: Control constructs pAcGP67-GalNAc-T1-sol, pAcGP67-GalNAc-T2-sol, pAcGP67-GalNAc-T3-sol, and pAcGP67-O^2-sol were prepared as previously described; made in house; host or cells: insect cells (baculovirus, pAcGP67)
Put plainly: GalNAc-transferase assay with purified recombinant GalNAc-T2. Type of data set: biochemical, human. Conditions: other: acceptor substrate; pH 7.5. The procedure: The following examples are provided to illustrate certain preferred embodiments of the invention, and should be considered as illustration and not as limitation. In the examples, GalNAc-transferase assays were performed in 50 μl total reaction mixtures containing 25 mM cacodylate (pH 7.5), 10 mM MnCl2, 0.1-0.25% Triton X-100, 150-200 μM UDP-[^14C]-GalNAc (4,000 cpm/nmole) (Amersham) and 0.06-1 mM acceptor peptides. Peptides were either synthesized or obtained from Carlbiotech (Copenhagen), or Neosystems (Strasbourg), and quality was ascertained by amino acid analysis and mass spectrometry. […] Products were quantified by scintillation counting after chromatography on Dowex-1, octadecyl silica cartridges (Bakerbond), or HPLC (PC3.2/3 or mRPC C2/C18 SC2.1/10 Pharmacia, Smart System). […]
Activities measured with the mucin derived substrates, Muc7, EA2, and Muc2 (see Table I for structures and SEQ ID NOs:19, 25 and 18, respectively), were only 2-7 fold over background values. […] GalNAc-T4 was expressed in High Five cells and purified to near homogeneity, however, very low endogenous activity was detected with some substrates in the same fractions when medium from cells infected with irrelevant expression constructs were used in the same purification strategy. […]

In data set [2] the test system is T2, C[C@H](NC(=O)[C@H](C)NC(=O)[C@@H](NC(=O)[C@@H](NC(=O)[C@H](CCC(=O)O)NC(=O)[C@@H]1CCCN1C(=O)[C@@H]1CCCN1C(=O)[C@H](C)NC(=O)[C@H](CO)NC(=O)[C@H](CO)NC(=O)[C@H](CO)NC(=O)[C@@H]1CCCN1C(=O)[C@@H]1CCCN1C(=O)[C@H](C)NC(=O)[C@@H]1CCCN1C(=O)[C@@H](NC(=O)[C@@H](NC(=O)[C@H](C)NC(=O)[C@H](CO)NC(=O)[C@@H]1CCCN1C(=O)[C@@H](NC(=O)[C@@H]1CCCN1C(=O)[C@@H]1CCCN1C(=O)[C@@H](N)CS)[C@@H](C)O)[C@@H](C)O)[C@@H](C)O)[C@@H](C)O)[C@@H](C)O)C(=O)O.
T2 construct: made in house; host or cells: High Five insect cells (baculovirus, pAcGP67 vector)
The experiment in a line: GalNAc-transferase assay with purified recombinant GalNAc-T4. Type of data set: biochemical, human. As to conditions: other: acceptor substrate; pH 7.5.
Description: In the examples, GalNAc-transferase assays were performed in 50 μl total reaction mixtures containing 25 mM cacodylate (pH 7.5), 10 mM MnCl2, 0.1-0.25% Triton X-100, 150-200 μM UDP-[^14C]-GalNAc (4,000 cpm/nmole) (Amersham) and 0.06-1 mM acceptor peptides. […] Products were quantified by scintillation counting after chromatography on Dowex-1, octadecyl silica cartridges (Bakerbond), or HPLC (PC3.2/3 or mRPC C2/C18 SC2.1/10 Pharmacia, Smart System).

Chain of GalNAc-T2 (Homo sapiens) (chain, as listed by the source): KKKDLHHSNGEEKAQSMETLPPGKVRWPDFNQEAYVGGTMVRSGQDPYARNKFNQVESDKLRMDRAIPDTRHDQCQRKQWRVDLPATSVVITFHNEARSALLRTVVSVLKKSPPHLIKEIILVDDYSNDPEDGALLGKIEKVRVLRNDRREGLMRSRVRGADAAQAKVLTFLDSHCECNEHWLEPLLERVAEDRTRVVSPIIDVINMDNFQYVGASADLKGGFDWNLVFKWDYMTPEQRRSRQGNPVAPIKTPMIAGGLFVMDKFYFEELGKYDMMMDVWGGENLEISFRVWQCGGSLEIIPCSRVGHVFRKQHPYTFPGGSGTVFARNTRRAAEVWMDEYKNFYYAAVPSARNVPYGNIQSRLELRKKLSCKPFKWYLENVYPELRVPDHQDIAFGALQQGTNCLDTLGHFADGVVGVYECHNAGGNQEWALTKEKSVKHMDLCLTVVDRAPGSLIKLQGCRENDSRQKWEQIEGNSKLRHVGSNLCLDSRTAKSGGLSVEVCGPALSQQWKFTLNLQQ
Chain of GalNAc-T4 (Homo sapiens) (chain, as listed by the source): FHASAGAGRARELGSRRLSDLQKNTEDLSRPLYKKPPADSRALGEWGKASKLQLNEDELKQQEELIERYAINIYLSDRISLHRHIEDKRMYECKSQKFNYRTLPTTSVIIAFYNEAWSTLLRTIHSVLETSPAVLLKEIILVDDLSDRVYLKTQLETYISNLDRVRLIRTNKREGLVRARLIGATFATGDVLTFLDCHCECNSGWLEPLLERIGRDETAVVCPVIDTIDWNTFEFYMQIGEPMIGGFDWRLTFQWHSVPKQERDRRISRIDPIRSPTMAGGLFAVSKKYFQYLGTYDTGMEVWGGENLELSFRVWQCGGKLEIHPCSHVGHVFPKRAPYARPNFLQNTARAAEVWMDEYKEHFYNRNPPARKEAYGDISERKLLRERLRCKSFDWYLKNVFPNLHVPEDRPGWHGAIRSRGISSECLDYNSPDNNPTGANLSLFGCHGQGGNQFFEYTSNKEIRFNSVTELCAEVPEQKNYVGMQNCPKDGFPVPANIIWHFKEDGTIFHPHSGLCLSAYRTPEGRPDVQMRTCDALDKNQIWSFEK

By Km is commonly meant the substrate concentration at which the rate is half of its maximum. Take GalNAc-T2 (Homo sapiens): in data set [1], the Michaelis-Menten constant (Km) was determined as 15 µM and the Vmax was determined as 0.64 nmol/min/µg.
As for GalNAc-T4 (Homo sapiens), in data set [2], the Km was found to be 480 µM and the Vmax was determined as 0.25 nmol/min/µg.
